Source: patent US20130149309A1

Molecular target: amyloid precursor protein C-terminal fragment (APP-CTF), P05067
Experiment: co-immunoprecipitation, HEK293 cells, with 10 µM imatinib
Details: remark: other sources report otherwise

amyloid precursor protein C-terminal fragment (APP-CTF), P05067, sequence (P05067 672-770 limits assumed): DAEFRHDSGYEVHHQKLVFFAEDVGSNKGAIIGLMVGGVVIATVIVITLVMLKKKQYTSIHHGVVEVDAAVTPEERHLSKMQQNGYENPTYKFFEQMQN

- reduction of the interaction by imatinib (10 µM): 47%
B1: gSAP-16K-HA (16 KDa C-terminal fragment, amino acid sequence 733-854, of gSAP with a C-terminal HA tag), A4D1B5 733-854 (protein, human, UniProt A4D1B5 733-854, looked up, not shown: small tags and cut ends)
chain: RLMKDLDNTEKNEKLKFSIIVRLPPLIGQKICRLWDHPMSSNIISRNHVTRLLQNYKKQPRNSMINKSSFSVEFLPLNYFIEILTDIESSNQALYPFEGHDNVDAEFVEEAALKHTAMLLGL
